Measured values reported in US6514936 (Bayer, dated 2003).

T1: Human rhinovirus serotype 3 (HRV3), purified virion (human rhinovirus serotype 3, UniProt Q82081 562-855; Q82081 70-331; Q82081 332-561; Q82081 2-69)
T1 construct: domain: VP1;domain: VP2;domain: VP3;domain: VP4; also called [35S]-HRV3
T1 sequence 1: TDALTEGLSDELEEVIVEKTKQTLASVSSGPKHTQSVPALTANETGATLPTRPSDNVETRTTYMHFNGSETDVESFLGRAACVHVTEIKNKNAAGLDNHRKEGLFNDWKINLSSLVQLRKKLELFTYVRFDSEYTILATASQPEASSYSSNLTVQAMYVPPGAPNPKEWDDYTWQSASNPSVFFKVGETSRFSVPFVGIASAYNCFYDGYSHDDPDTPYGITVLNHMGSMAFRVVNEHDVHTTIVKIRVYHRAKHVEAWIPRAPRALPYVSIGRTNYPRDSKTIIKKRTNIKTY
T1 sequence 2: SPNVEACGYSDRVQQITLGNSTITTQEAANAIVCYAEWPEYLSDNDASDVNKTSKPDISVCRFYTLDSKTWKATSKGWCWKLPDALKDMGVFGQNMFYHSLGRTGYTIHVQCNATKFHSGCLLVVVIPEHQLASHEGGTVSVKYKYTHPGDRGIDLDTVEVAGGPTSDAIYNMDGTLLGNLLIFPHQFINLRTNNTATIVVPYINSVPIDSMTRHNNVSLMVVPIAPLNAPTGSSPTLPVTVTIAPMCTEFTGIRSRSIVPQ
T1 sequence 3: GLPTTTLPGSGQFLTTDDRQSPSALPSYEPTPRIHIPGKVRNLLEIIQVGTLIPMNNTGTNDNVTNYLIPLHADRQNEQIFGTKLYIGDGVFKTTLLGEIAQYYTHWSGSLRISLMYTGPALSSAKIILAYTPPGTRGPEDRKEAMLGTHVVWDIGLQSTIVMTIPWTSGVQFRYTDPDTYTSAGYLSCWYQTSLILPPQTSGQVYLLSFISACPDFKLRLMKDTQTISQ
T1 sequence 4: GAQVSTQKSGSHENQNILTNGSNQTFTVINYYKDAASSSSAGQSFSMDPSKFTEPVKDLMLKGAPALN

B1: Transmembrane intercellular adhesion molecule-1 (tmICAM-1) (receptor, human, UniProt P05362 28-532, looked up)
chain: QTSVSPSKVILPRGGSVLVTCSTSCDQPKLLGIETPLPKKELLLPGNNRKVYELSNVQEDSQPMCYSNCPDGQSTAKTFLTVYWTPERVELAPLPSWQPVGKNLTLRCQVEGGAPRANLTVVLLRGEKELKREPAVGEPAEVTTTVLVRRDHHGANFSCRTELDLRPQGLELFENTSAPYQLQTFVLPATPPQLVSPRVLEVDTQGTVVCSLDGLFPVSEAQVHLALGDQRLNPTVTYGNDSFSAKASVSVTAEDEGTQRLTCAVILGNQSQETLQTVTIYSFPAPNVILTKPEVSEGTEVTVKCEAHPRAKVTLNGVPAQPLGPRAQLLLKATPEDNGRSFSCSATLEVAGQLIHKNQTRELRVLYGPRLDERDCPGNWTWPENSQQTPMCQAWGNPLPELKCLKDGTFPLPIGESVTVTRDLEGTYLCRARSTQGEVTRKVTVNVLSPRYEIVIITVVAAAVIMGTAGLSTYLYNRQRKIKKYRLQQAQKGTPMKPNTQATPP
notes: mature; also called HRR; human rhinovirus receptor
B2: tICAM(185) (receptor)
chain: QTSVSPSKVILPRGGSVLVTCSTSCDQPKLLGIETPLPKKELLLPGNNRKVYELSNVQEDSQPMCYSNCPDGQSTAKTFLTVYWTPERVELAPLPSWQPVGKNLTLRCQVEGGAPRANLTVVLLRGEKELKREPAVGEPAEVTTTVLVRRDHHGANFSCRTELDLRPQGLELFENTSAPYQLQTF
notes: range 1-185; On the UniProt precursor it is shifted by the length of the signal peptide; also called truncated ICAM, domains I and II; two N-terminal domains of ICAM-1
B3: tICAM(453) (receptor)
chain: QTSVSPSKVILPRGGSVLVTCSTSCDQPKLLGIETPLPKKELLLPGNNRKVYELSNVQEDSQPMCYSNCPDGQSTAKTFLTVYWTPERVELAPLPSWQPVGKNLTLRCQVEGGAPRANLTVVLLRGEKELKREPAVGEPAEVTTTVLVRRDHHGANFSCRTELDLRPQGLELFENTSAPYQLQTFVLPATPPQLVSPRVLEVDTQGTVVCSLDGLFPVSEAQVHLALGDQRLNPTVTYGNDSFSAKASVSVTAEDEGTQRLTCAVILGNQSQETLQTVTIYSFPAPNVILTKPEVSEGTEVTVKCEAHPRAKVTLNGVPAQPLGPRAQLLLKATPEDNGRSFSCSATLEVAGQLIHKNQTRELRVLYGPRLDERDCPGNWTWPENSQQTPMCQAWGNPLPELKCLKDGTFPLPIGESVTVTRDLEGTYLCRARSTQGEVTRKVTVNVLSPRYE
notes: range 1-453; On the UniProt precursor it is shifted by the length of the signal peptide; also called truncated ICAM, domains I-V; entire extracellular domain of ICAM-1

Columns and labels:
[1] = biological target: T1, Human rhinovirus serotype 3 (HRV3), …; assay: solid-phase competition, soluble ICAM against [35S]-HRV3 binding to ICAM-1-coated plates, 0.1% Triton X-100; average of three experiments ± S.D.
[2] = biological target: T1, Human rhinovirus serotype 3 (HRV3), …; assay: dot-blot, normalised [35S]-HRV3 binding of immobilised ICAM against that of immobilised tICAM(453)
[3] = biological target: T1, Human rhinovirus serotype 3 (HRV3), …; assay: pelleting assay, [35S]-cysteine-labelled ICAM mixed with HRV3 and centrifuged; average of 4 experiments
[4] = biological target: T1, Human rhinovirus serotype 3 (HRV3), …; assay: solid-phase competition against [35S]-HRV3 binding to ICAM-1-coated plates
[5] = biological target: T1, Human rhinovirus serotype 3 (HRV3), …; assay: cell-based or functional assay
[6] = biological target: T1, Human rhinovirus serotype 3 (HRV3), …; assay: cell-based or functional assay; remark: listed apart in the source

Row | Binder | IC50 [1] [µM] | ratio ICAM/tICAM (453) [2] | % ICAM Pelleted [3] [%] | fold difference of IC50 against tICAM(453) [4] [fold] | fold higher IC50 than tmICAM [4] [fold] | IC50, neutralization of HRV3 infectivity, Assay I (continuous) [5] [µM] | IC50, neutralization of HRV3 infectivity, Assay II (Pretreatment) [5] [µM] | IC50, neutralization of HRV3 infectivity, Assay III (high MOI) [5] [µM] | neutralization IC50 in Assay III relative to tICAM(185) [6] [fold]
1 | B1 | 0.008 | 2.3 | 11.6 |  |  |  |  |  | 
2 | B2 | 9.7 |  | 4.3 | 3 | 1000 | 8.2 | < 20 | 13.2 | 
3 | B3 | 3.1 |  | 1 |  | 350 | 0.38 | < 20 | 1.2 | 11
